Positions count from the first letter of the chain named.
T1: full-length Sudan GP (GPFL) (Sudan virus (SUDV), UniProt Q7T9D9 33-650)
T1 construct: also called Sudan GPFL; GP(S)FL
T1 sequence: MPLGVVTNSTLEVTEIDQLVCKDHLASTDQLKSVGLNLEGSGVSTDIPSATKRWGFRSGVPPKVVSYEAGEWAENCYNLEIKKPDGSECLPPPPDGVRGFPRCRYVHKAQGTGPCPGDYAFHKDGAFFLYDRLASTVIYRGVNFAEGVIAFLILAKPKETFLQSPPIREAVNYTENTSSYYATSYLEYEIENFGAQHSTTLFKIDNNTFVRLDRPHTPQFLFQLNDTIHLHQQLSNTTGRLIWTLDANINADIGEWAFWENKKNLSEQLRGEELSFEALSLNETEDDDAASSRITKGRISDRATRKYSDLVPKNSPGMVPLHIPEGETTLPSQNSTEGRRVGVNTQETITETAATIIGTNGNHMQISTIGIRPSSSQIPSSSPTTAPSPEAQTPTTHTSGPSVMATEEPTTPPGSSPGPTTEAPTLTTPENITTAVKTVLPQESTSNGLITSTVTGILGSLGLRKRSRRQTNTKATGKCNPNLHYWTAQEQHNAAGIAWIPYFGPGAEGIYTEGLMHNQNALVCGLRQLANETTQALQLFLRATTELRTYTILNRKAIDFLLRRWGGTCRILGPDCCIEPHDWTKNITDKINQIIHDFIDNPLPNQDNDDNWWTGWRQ

B1: Fab generated from 285S (Fab, V domains shown)
VH: QVQLVQSGAEVKKPGSSVKVSCKASGGTFSTYAITWVRQAPGQGLEWMGRIIPILRVANYAQKFQGRVTITADSSTSTAYMELSSLRSEDTAVYYCANLLAYCGGDCRSDYWGQGTLVTVSS
VL: EIVLTQSPGTLSLSPGERATLSCRASQSVKNSYLAWYHQKPGQAPRLLIYGASSRATGIPDRFSGSGSGTDFTLTISRLEPEDFAVYYCQQYGSSLWTFGQGTKVDVK
B2: Fab generated from 338S (Fab, V domains shown)
VH: EVQLVESGGGVVQPGRSLRLSCAASGFTFSQYGMHWVRQAPGKGLECVAVIWFDGSKKYYGDSVKGRFTISRDNSKNTLYLQMNSLRAEDTAVYFCARESLYYYDSGGHYYERGRIDYWGQGTLVTVSS
VL: DIQMTQSPSSLSASVGDRVTITCRASQDISNFLAWFQQKPGKAPKSLIYAASSLLSGVPSKFSGSGSGTDFTLTISSLQPEDFATYYCQQYNSYPPTFGQGTKLEIK
B3: Fab generated from 377S (Fab, V domains shown)
VH: QVQLVQSGAEVKKPGSSVKVSCKASGGTFSNYAINWVRQAPGQGLEWMGRTIPFLGLTNYAENFQARVTITADKSTGTSYMQLSSLRSEDTAVYFCAKAATSGWSPFDNWGQGTLVTVSS
VL: EIVLTQSPGTLSLSPGERATLSCRASQSISSSYFGWYQQKPGQAPRLLIYGASRRAAGIPDRFSCSGSGTDFTLTISRLEPEDFGVYYCQQYGSSPTFGQGTKVEIK
B4: Fab generated from 294S (Fab, V domains shown)
VH: QVQLQESGPGLVKPSQTLSLTCTVSGGSISSGGYHWSWIRQHPGKGLEWIGNIYYNGRTYYNPSLKSRVTISVDTSENEFSLKLSSVTAADTAVYYCARDRRRPRIGHDYGMDVWGQGTKVIVSS
VL: DIQMTQSPSSLSASVGDRVTISCRASQSISNFLNWYQQKPGQAPKLLIYTASNLQSGVPSRFSGSGSGTDFTLTISSLQPEDFATYYCQQIYNTGMYSFGQGTKLEIK
notes: also called 294S Fab
B5: Fab generated from 523S (Fab, V domains shown)
VH: QVQLVQSGAELKKPGASVKVSCKASGYTFSDHYVHWVRQAPGQGLEWMGRINPNSGGTNYAQRFLGRVTMTRDASISTAYLDLSSLRSDDTAVYYCARSSSSWSGHYYYYMDVWGKGTTVTVSS
VL: QSVLTQPPSVSAAPGQRVTISCSGSTSNIASNFVSWYQQLPGTAPKLLIYDNHKRPSGIPDRFSGSKSGTSATLGITGLQTGDEADYYCGTWDSSLSAGVFGGGTKVTVL
notes: also called 523S Fab
B6: Fab generated from 315S (Fab, V domains shown)
VH: EVQLVESGGGVVQPGRSLRLSCAASGFTFKTYTMHWVRQAPGKGLEWVAVITDDGVNKKYADSVKGRFTISRDNSKNTLYLQMNSLRLEDTAVYYCARSVVVLAAYPLDYWGQGTMVTVSS
VL: DIQMTQSPSSLSASVGDRVTITCRASQTISTYLHWYQQRPGKAPKLLIYAASSLQSGVPSRVSGSGSGTDFTLTITSLQPEDFATYYCLQTYSLPLTFGGGTNVEIK
notes: also called 315S Fab
B7: Fab generated from 365S (Fab, V domains shown)
VH: EVQLVESGGGLVQPGGSLRLSCAASGLTFSAYEMNWVRQAPGKGLEWVSHITTSGSAIYYADSVKGRFTISRDNAKNSLHLQMNRLRADDTAVYFCARDSTIVQCSGTSCHVSTYSYMDVWGKGTTVTVSS
VL: EIVLTQSPATLSLSPGERATLSCRASQSVTTYLAWYQHKPGQAPRLLIYDASKRATGIPARFSGSGSGTDFTLTISSLEPEDFAVYHCQQRSSWPPITFGQGTRLEIK
notes: also called 365S Fab
B8: Fab generated from 203S (Fab, V domains shown)
VH: QVQLVQSGAEVKKPGSSVKVSCKASGGTFSSYAISWVRQAPGQGLEWLGRILPALGLANYAQKYQDRVKITADKSTSTAYMELSRLGSEDTAVYYCARDRWVGAARRGQYFDYWGQGTQVTVSS
VL: DIQMTQSPATLSASVGDRVTITCRASQSIGTWLAWYQQKPGKAPKLLIYDASSLESGVPPRFSGSGSETEFTLTISSLQPDDFATYYCHQYKSYSYTFGQGTKLEIK
notes: also called 203S Fab
B9: Fab generated from 382S (Fab, V domains shown)
VH: QVQLVQSGAEVKKPGSSVKVSCKASGGTFSNYGISWVRQAPGQGLEWMGRNIPIIGIANYAQKFQDRVTITADKSTSTVFMELRSLRYEDTAVYYCARDPLAARRGNWFDPWGQGTLVTVSS
VL: B8 VL with A9S, I29V, G30S, T31S, S53T, E55Q, P60S, E68G, H89Q, K92N
notes: also called 382S Fab
B10: Fab generated from 573S (Fab, V domains shown)
VH: EVQLVESGGGLVKPGGSLRLSCAASGFTFSSYTMNWVRQAPGKGLEWVSCIRSSSSDKYYADSVKGRFTISRDNTKNSLYLQMNSLRADDTAVYYCARDLGGANNRYYFDYGMDVWGQGTTVTVSS
VL: EIVMTQSPATLSVSPGGRATLSCRASQSVYTNLAWYQQKPGQAPRLLIYDASTRATGIPARFSGSGSGTEFTLTISSLQCEDFAVYYCQHYNNWPLYTFGQGTKLEIK
notes: also called 573S Fab
B11: Fab generated from 578S (Fab, V domains shown)
VH: EVQLVESGGGVVQPGRSLRLSCAASGFTFSSYELHWVRQAPGKGLEWVAVISYDGSSKYYADSLKGRFTISRDNSKNTLSLQMNSLRAEDTAMYYCVRQSEAYCSDGRCDWRRALDIWGQGTMVTVSP
VL: DIQMTQSPSSLSASVGDRVTITCQASQDIKNYLNWYQQKPGKAPKLLIYDVSKLETGVPSRFSGSGSGTDFSFTISSLQPEDIATYYCQQYDNLPSYTFGQGTKLEIK
notes: also called 578S Fab
B12: Fab generated from 335S (Fab, V domains shown)
VH: EVQLVESGGGVVQPGRSLRLSCAASGFSFSNYAMHWVRQAPGKGLEWVAVTWYDGSSKYHADSVKGRFTISRDNSKNTLYLQMNSLRAEDTAVYYCARWGMGIVASPGNVLNYYYFMDVWGQGTTVIVSS
VL: SYELTQPPSVSVSPGQTARITCSGNPLPKKHTYWYQQKPGQAPVLMIYKDSERPSRIPERFSGSSSGTTVTLTISGVQAEDEADYYCQSADSTGIVVFGGGTKLTVL
notes: also called 335S Fab
B13: Fab generated from 528S (Fab, V domains shown)
VH: EVQLAESGGGVVQPGRSLRLSCAASGFTFNSYGMHWVRQAPGKGLEWVAVIWDDGSKKYYADSVKGRFTISRDNSKNTLFLQMNSLRAEDTAVYYCARETIMFTFGEVIVSSRDNYYMDVWGKGTTVTVSS
VL: EIVLTQSPATLSLSPGERATLSCRASQSVSNYLAWYQQKPGQAPRLLIYDASTRAIGIPARFSGVGSGTDFTLTISSLEPEDFAVYYCQQRSNWPPLTFGGGTKVEIK
notes: also called 528S Fab
B14: Fab generated from 102S (Fab, V domains shown)
VH: EVQLVESGGGLVQPGGSLRLSCSASGFTFHSYDMNWARQAPGKGLEWVSEISSSGQSKNYADSVRGRFTISRDNAKNSLYLQINSLRSEDTAVYYCARVGFVAKFGSDFSITHGTYYLDYWGQGTLVTVSS
VL: B13 VL with E1Q, I2L, T53N, I56P, I58V, V65S, T72S, Q89L, L97W, G101Q
B15: Fab generated from 541S (Fab, V domains shown)
VH: QVQLVQSGAEVKKPGASVKVSCKASGYTFTNYAITWVRQAPGQGLEWMGWISAFNGQINYAQKFQGRVAMTTDTSTSTAYMELRSLRSDDTAVYYCARAPPMWFSGAKFDYWGQGTLVTVSS
VL: QSVLTQPPSVSGTPGQRVTISCSGSSSNIGSNTVNWYQQLPGTAPKLLIYSNDQRPSGVPDRFSGSKSGTSASLAISGLRSEDEADYYCAAWDETLRRVFGGGTRLTVL
notes: also called 541S Fab

Key:
[1] = biological target: T1, full-length Sudan GP (GPFL); assay: BLI, Fab, pH 5.3
[2] = biological target: T1, full-length Sudan GP (GPFL); assay: BLI, Fab, pH 7.4
[3] = biological target: T1, full-length Sudan GP (GPFL); assay: BLI, Fab, pH 5.3; remark: listed apart in the source
[4] = biological target: T1, full-length Sudan GP (GPFL); assay: BLI, Fab, pH 7.4; remark: listed apart in the source

Row | Binder | Kd [1] | koff [1] | kon [1] | Kd [2] | koff [2] | kon [2] | Kd [3] | koff [3] | kon [3] | Kd [4] | koff [4] | kon [4]
1 | B1 | 18.2 nM | 0.000305 s⁻¹ | 16800 M⁻¹ s⁻¹ | 6.11 nM | 0.000258 s⁻¹ | 42200 M⁻¹ s⁻¹ |  |  |  |  |  | 
2 | B2 | 23.7 nM | 0.000418 s⁻¹ | 17600 M⁻¹ s⁻¹ | 27.4 nM | 0.000632 s⁻¹ | 23100 M⁻¹ s⁻¹ |  |  |  |  |  | 
3 | B3 | 63.7 nM | 0.000571 s⁻¹ | 8970 M⁻¹ s⁻¹ | 36.7 nM | 0.000631 s⁻¹ | 17200 M⁻¹ s⁻¹ |  |  |  |  |  | 
4 | B4 |  |  |  |  |  |  | 2.18 nM | 0.000377 s⁻¹ | 173000 M⁻¹ s⁻¹ | 4.3 nM | 0.00135 s⁻¹ | 314000 M⁻¹ s⁻¹
5 | B5 |  |  |  |  |  |  | 1.58 nM | 0.000103 s⁻¹ | 65400 M⁻¹ s⁻¹ | 1.61 nM | 0.000148 s⁻¹ | 91900 M⁻¹ s⁻¹
6 | B6 | 4.26 nM | 8.93e-05 s⁻¹ | 21000 M⁻¹ s⁻¹ | 8.37 nM | 0.000303 s⁻¹ | 36200 M⁻¹ s⁻¹ |  |  |  |  |  | 
7 | B7 | 57.7 nM | 0.00362 s⁻¹ | 62800 M⁻¹ s⁻¹ | 102 nM | 0.00171 s⁻¹ | 16800 M⁻¹ s⁻¹ |  |  |  |  |  | 
8 | B8 | 118 nM | 0.00046 s⁻¹ | 3880 M⁻¹ s⁻¹ | 26.1 nM | 0.000376 s⁻¹ | 14400 M⁻¹ s⁻¹ |  |  |  |  |  | 
9 | B9 | 31.3 nM | 0.000452 s⁻¹ | 14500 M⁻¹ s⁻¹ | 26 nM | 0.000422 s⁻¹ | 16200 M⁻¹ s⁻¹ |  |  |  |  |  | 
10 | B10 |  |  |  |  |  |  | 9.27 nM | 0.000105 s⁻¹ | 11300 M⁻¹ s⁻¹ | 24.1 nM | 0.000252 s⁻¹ | 10500 M⁻¹ s⁻¹
11 | B11 | 334 nM | 0.000695 s⁻¹ | 2100 M⁻¹ s⁻¹ | 97.1 nM | 0.000404 s⁻¹ | 4200 M⁻¹ s⁻¹ |  |  |  |  |  | 
12 | B12 | 12.6 nM | 0.000352 s⁻¹ | 27800 M⁻¹ s⁻¹ | 5.6 nM | 0.000496 s⁻¹ | 88500 M⁻¹ s⁻¹ |  |  |  |  |  | 
13 | B13 | 5.58 nM | 4.65e-05 s⁻¹ | 8330 M⁻¹ s⁻¹ | 9.11 nM | 0.000387 s⁻¹ | 42500 M⁻¹ s⁻¹ |  |  |  |  |  | 
14 | B14 |  |  |  | 91.2 nM | 0.00504 s⁻¹ | 55300 M⁻¹ s⁻¹ |  |  |  |  |  | 
15 | B15 |  |  |  |  |  |  | 44.3 nM | 0.000322 s⁻¹ | 7260 M⁻¹ s⁻¹ | 39.5 nM | 0.000482 s⁻¹ | 12200 M⁻¹ s⁻¹

Reference: patent US20260209316A1 (US Dept. of Health and Human Services, published 2026)
